Measured values reported in the supplement of paper PMC9112550, “Optimization of the antimicrobial peptide Bac7 by deep mutational scanning” (BMC Biology, 2022).

Tested on: Escherichia coli TOP10
Assay: shrunken log2 fold change of peptide-encoding DNA abundance (4.5 h post-induction vs induction); higher = less antimicrobial activity (less host growth inhibition)
Settings: time post-induction: 4.5 h; library: site-saturation at positions 5, 18, 19, 20
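Further: peptides expressed intracellularly from a pBAD plasmid library in pooled LB shake-flask culture, induced with 0.3% L-arabinose, DNA abundance read by NGS, three biological replicates, DESeq2 with apeglm shrinkage.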

Sequence	shrunken log2 fold change
RRIRVRPPRLPRPRPRPAFLPRP	0.0548
RRIRPRPPRLPRPRPRPRDNPRP	-0.104
RRIRNRPPRLPRPRPRPLQQPRP	0.0184
RRIRVRPPRLPRPRPRPDSHPRP	-0.111
RRIRLRPPRLPRPRPRPLWQPRP	-0.0523
RRIRGRPPRLPRPRPRPVDMPRP	0.255
RRIRHRPPRLPRPRPRPWIGPRP	-0.0136
RRIRARPPRLPRPRPRPKYNPRP	-0.411
RRIRSRPPRLPRPRPRPIKHPRP	-0.0703
RRIRPRPPRLPRPRPRPLNRPRP	-0.0518
RRIRWRPPRLPRPRPRPKIIPRP	-0.0886
RRIRTRPPRLPRPRPRPKPKPRP	0.349
RRIRQRPPRLPRPRPRPQEGPRP	0.0274
RRIRRRPPRLPRPRPRPGEPPRP	0.41
RRIRWRPPRLPRPRPRPTVAPRP	0.662
RRIRMRPPRLPRPRPRPRAMPRP	1.42
RRIRERPPRLPRPRPRPCADPRP	0.0245
RRIRYRPPRLPRPRPRPVRIPRP	-0.053
RRIRFRPPRLPRPRPRPNDVPRP	0.0386
RRIRDRPPRLPRPRPRPYFCPRP	-0.177
RRIRKRPPRLPRPRPRPMEDPRP	-0.00186
RRIRYRPPRLPRPRPRPEDFPRP	-0.00133
RRIRQRPPRLPRPRPRPNTHPRP	-0.203
RRIRNRPPRLPRPRPRPFVRPRP	-0.0373
RRIRYRPPRLPRPRPRPSLRPRP	-0.9

Sequence	shrunken log2 fold change
RRIRFRPPRLPRPRPRPHSCPRP	-0.249
RRIRPRPPRLPRPRPRPAERPRP	0.291
RRIRYRPPRLPRPRPRPPCRPRP	-0.211
RRIRCRPPRLPRPRPRPVLFPRP	-0.101
RRIRIRPPRLPRPRPRPGLMPRP	-0.0194
RRIRYRPPRLPRPRPRPSAEPRP	-0.0651
RRIRNRPPRLPRPRPRPWTVPRP	-0.0833
RRIRARPPRLPRPRPRPGQVPRP	0.402
RRIRARPPRLPRPRPRPWHFPRP	0.24
RRIRCRPPRLPRPRPRPPCDPRP	0.242
RRIRGRPPRLPRPRPRPNENPRP	0.931
RRIRTRPPRLPRPRPRPFSSPRP	-0.399
RRIRNRPPRLPRPRPRPNIIPRP	-0.784
RRIRHRPPRLPRPRPRPLYLPRP	-0.4
RRIRRRPPRLPRPRPRPVSRPRP	-0.0137
RRIRPRPPRLPRPRPRPPGMPRP	0.501
RRIRERPPRLPRPRPRPSEKPRP	-0.0759
RRIRARPPRLPRPRPRPLHWPRP	0.387
RRIRHRPPRLPRPRPRPLTVPRP	-0.0423
RRIRGRPPRLPRPRPRPYTLPRP	-0.616
RRIRRRPPRLPRPRPRPRYLPRP	-0.0373
RRIRCRPPRLPRPRPRPEWQPRP	-0.0271
RRIRPRPPRLPRPRPRPMQIPRP	0.114
RRIRYRPPRLPRPRPRPIQMPRP	-0.0163
RRIRRRPPRLPRPRPRPWTHPRP	0.0267

Sequence	shrunken log2 fold change
RRIRMRPPRLPRPRPRPQHDPRP	-0.202
RRIRCRPPRLPRPRPRPGPQPRP	0.117
RRIRDRPPRLPRPRPRPEGYPRP	0.585
RRIRDRPPRLPRPRPRPQRWPRP	0.287
RRIRMRPPRLPRPRPRPLSFPRP	0.102
RRIRRRPPRLPRPRPRPWHHPRP	-0.242
RRIRLRPPRLPRPRPRPSRIPRP	-0.15
RRIRMRPPRLPRPRPRPVEMPRP	-0.0685
RRIRMRPPRLPRPRPRPSEHPRP	0.0665
RRIRERPPRLPRPRPRPKWDPRP	0.953
RRIRKRPPRLPRPRPRPQNYPRP	-0.196
RRIRPRPPRLPRPRPRPPREPRP	0.678
RRIRQRPPRLPRPRPRPASNPRP	-0.00674
RRIRKRPPRLPRPRPRPFWEPRP	0.341
RRIRVRPPRLPRPRPRPDRKPRP	0.0279
RRIRSRPPRLPRPRPRPQYWPRP	-0.397
RRIRQRPPRLPRPRPRPETAPRP	0.159
RRIRERPPRLPRPRPRPEGDPRP	0.0441
RRIRYRPPRLPRPRPRPEQDPRP	-0.0203
RRIRDRPPRLPRPRPRPLSAPRP	0.379
RRIRHRPPRLPRPRPRPMTCPRP	-0.137
RRIRSRPPRLPRPRPRPRSPPRP	0.363
RRIRHRPPRLPRPRPRPPVIPRP	-0.251
RRIRTRPPRLPRPRPRPDPSPRP	-0.0208
RRIRIRPPRLPRPRPRPTMWPRP	-0.0599

Sequence	shrunken log2 fold change
RRIRHRPPRLPRPRPRPSYWPRP	0.0148
RRIRVRPPRLPRPRPRPPLNPRP	-0.098
RRIRGRPPRLPRPRPRPCTDPRP	0.522
RRIRTRPPRLPRPRPRPATHPRP	-0.152
RRIRCRPPRLPRPRPRPFYCPRP	-0.645
RRIRFRPPRLPRPRPRPGSFPRP	-0.0983
RRIRRRPPRLPRPRPRPCRSPRP	-0.03
RRIRNRPPRLPRPRPRPEMAPRP	0.321
RRIRSRPPRLPRPRPRPLVAPRP	0.27
RRIRTRPPRLPRPRPRPLICPRP	-0.277
RRIRSRPPRLPRPRPRPEDIPRP	-0.0081
RRIRCRPPRLPRPRPRPSKHPRP	-0.553
RRIRARPPRLPRPRPRPPFHPRP	0.386
RRIRFRPPRLPRPRPRPWQPPRP	0.0512
RRIRNRPPRLPRPRPRPCRPPRP	-0.197
RRIRIRPPRLPRPRPRPSDQPRP	-0.528
RRIRPRPPRLPRPRPRPEIKPRP	0.0782
RRIRIRPPRLPRPRPRPILMPRP	-0.23
RRIRHRPPRLPRPRPRPNDSPRP	-0.072
RRIRNRPPRLPRPRPRPLDIPRP	0.0164
RRIRSRPPRLPRPRPRPQSGPRP	-0.101
RRIRQRPPRLPRPRPRPHQWPRP	0.323
RRIRGRPPRLPRPRPRPCTIPRP	0.166
RRIRDRPPRLPRPRPRPIVNPRP	-0.0751
RRIRYRPPRLPRPRPRPEGVPRP	-0.0041

Sequence	shrunken log2 fold change
RRIRTRPPRLPRPRPRPNDAPRP	-0.036
RRIRPRPPRLPRPRPRPRCEPRP	0.809
RRIRWRPPRLPRPRPRPFHPPRP	-0.138
RRIRRRPPRLPRPRPRPEDLPRP	-0.00437
RRIRWRPPRLPRPRPRPADVPRP	-0.305
RRIRFRPPRLPRPRPRPFAYPRP	0.0263
RRIRNRPPRLPRPRPRPWGQPRP	0.0191
RRIRYRPPRLPRPRPRPAYAPRP	-0.236
RRIRWRPPRLPRPRPRPISRPRP	-0.116
RRIRLRPPRLPRPRPRPPTQPRP	0.376
RRIRGRPPRLPRPRPRPMTAPRP	0.692
RRIRMRPPRLPRPRPRPVRIPRP	0.238
RRIRRRPPRLPRPRPRPETVPRP	-0.11
RRIRHRPPRLPRPRPRPAKKPRP	0.0694
RRIRKRPPRLPRPRPRPLNFPRP	0.103
RRIRMRPPRLPRPRPRPDSNPRP	0.754
RRIRNRPPRLPRPRPRPSCCPRP	-0.318
RRIRVRPPRLPRPRPRPCHNPRP	-0.362
RRIRNRPPRLPRPRPRPSYDPRP	-0.452
RRIRKRPPRLPRPRPRPWPGPRP	0.342
RRIRHRPPRLPRPRPRPKFLPRP	0.0327
RRIRYRPPRLPRPRPRPQMLPRP	-0.846
RRIRERPPRLPRPRPRPWIHPRP	0.105
RRIRHRPPRLPRPRPRPMWIPRP	-0.0176
RRIRERPPRLPRPRPRPEEVPRP	-0.00101

Sequence	shrunken log2 fold change
RRIRIRPPRLPRPRPRPMAGPRP	0.022
RRIRWRPPRLPRPRPRPGFYPRP	0.0692
RRIRNRPPRLPRPRPRPDIKPRP	-0.171
RRIRERPPRLPRPRPRPCVGPRP	-0.278
RRIRFRPPRLPRPRPRPSFAPRP	-0.156
RRIRFRPPRLPRPRPRPHMTPRP	-0.186
RRIRQRPPRLPRPRPRPNQQPRP	-0.0802
RRIRWRPPRLPRPRPRPVNFPRP	0.0606
RRIRERPPRLPRPRPRPVQWPRP	0.149
RRIRWRPPRLPRPRPRPGEIPRP	0.889
RRIRLRPPRLPRPRPRPKNQPRP	-0.202
RRIRFRPPRLPRPRPRPDRCPRP	-0.208
RRIRLRPPRLPRPRPRPDDWPRP	0.044
RRIRRRPPRLPRPRPRPRCNPRP	-0.223
RRIRQRPPRLPRPRPRPTQSPRP	0.375
RRIRHRPPRLPRPRPRPYGYPRP	-0.22
RRIRGRPPRLPRPRPRPGLVPRP	0.848
RRIRIRPPRLPRPRPRPPNTPRP	-0.464
RRIRDRPPRLPRPRPRPDKWPRP	-0.0651
RRIRYRPPRLPRPRPRPQRAPRP	-0.374
RRIRNRPPRLPRPRPRPGDAPRP	0.102
RRIRVRPPRLPRPRPRPLKTPRP	-0.0304
RRIRVRPPRLPRPRPRPVCGPRP	0.211
RRIRRRPPRLPRPRPRPLRTPRP	1.41
RRIRQRPPRLPRPRPRPGWGPRP	0.957
